In US20170327556A1, “CARTILAGE-BINDING FUSION PROTEINS” (Merrimack Pharmaceuticals, Inc., priority 2013, published 2017):

Assays:
collagen type II = target: T1, collagen type II (Homo sapiens, UniProt P02458); assay: ELISA binding of fusion proteins to collagen type II coated plates; settings: 6x-Histidine-tagged proteins, FIG. 2
T1 construct: purchased Chondrex Products, Redmond, Wash
Experimental: Specificity of proteins to collagen type II may be determined by measuring the ability of the protein to bind the collagen coated on an ELISA plate. Reacti-Bind® 96 well plates are coated overnight at 4° C. with 100 μl of collagen type II (Chondrex Products, Redmond, Wash.) with 1× supplied buffer. Plates are washed with PBS, 0.05% Tween-20 (PBST) and blocked for 1 hour at room temperature with 100 μl of Protein-Free Blocking Buffer (Pierce, Thermo Scientific). Plates are then washed with PBST and tapped dry. 50 μL, of protein in a dilution series is added to the wells and incubated for 1 hour at room temperature. The protein dilution series starts from 100 μM and includes ten additional three-fold dilutions in PBS and one blank (PBS). After plates are washed in PBS, 50 μL, of anti-human IGF-1 (Abcam) at 1:250 in PBST is added and plates are incubated for 1 hour rotating at room temperature. The plates are then washed with PBST and 100 μL, of 1:1000 anti-Rabbit-HRP (Cell Signaling Technology) in PBST for 1 hour at room temperature. […] The absorbance is measured at 450 nm and the resulting data is analyzed using GraphPad Prism®.
The binding of two anticipated type II collagen binding fusion proteins, GF-Fus5 (6x-Histidine-tagged) and GF-Fus6 (6x-Histidine-tagged) was measured as described above.

[1] = ELISA binding of fusion proteins to heparan sulfate coated plates; settings: 6x-Histidine-tagged proteins, FIG. 1A
Experimental: (§1) The specificity of binding of fusion proteins to the polysaccharides heparan sulfate and chondroitin sulfate may be determined by measuring the ability of the proteins to bind polysaccharides coated on an ELISA plate. Heparin Binding Plates (BD Biosciences) are coated with 50 μl of 2-10 μg/mL concentration of heparan sulfate or chondroitin sulfate (Sigma-Aldrich®) and incubated overnight at room temperature. Plates are washed with PBS and blocked with 250 μl of 0.2% gelatin in PBS for 1 hour at 37 C. Plates are then washed with PBS and tapped dry. 50 μl of protein in a dilution series is added to the wells and incubated for 2 hours at 37 C. The protein dilution series starts from 100 nM and includes ten additional three-fold dilutions in PBS, 0.2% gelatin and one blank (PBS, 0.2% gelatin only). After the plates are washed in PBS, 50 μl of anti-human IGF-1 (Abcam) at 1:250 in PBST is added and the plates are incubated for 1 hour rotating at room temperature. Plates are washed with PBST and 100 μl of 1:1000 anti-Rabbit-HRP (Cell Signaling Technology®) in PBST is added to each well and the plate is incubated for 1 hour at room temperature. […] The absorbance is measured at 450 nm and the resulting data is analyzed using GraphPad Prism® (GraphPad Software, San Diego, Calif.). […]

[2] = Stability of GF-Fus3 in human synovial fluid (western blot); format: in vitro ADME
Experimental: Synovial fluid was harvested from two human donors (see Table 14) within 24 hours of death, flash frozen and stored at −80° C. 2 μL of GF-Fus3 (0.45 mg/mL in PBS, Life Technologies Cat#10010-031) was added to 18 pt of synovial fluid (final GF-Fus3 concentration is 45 μg/mL) in a sealed 200 μL PCR tube and incubated at 37° C. for 0, 24, 48, 72, or 96 hours. Samples were diluted 1:10 in PBS and 10 μL (45 ng of GF-Fus3) was mixed with 3.3 μL of NuPAGE LDS Sample Buffer (Life Technologies, Cat# NP0007). GF-Fus3 standards were prepared at 100, 200, 400, 800, and 1600 ng/mL and 10 μL of each solution was mixed with 3.3 uL of NuPAGE LDS Sample Buffer. All samples and standards were loaded onto a 4-12% NuPAGE Bis-Tris Gel (Life Technologies, Cat# NP0321BOX), and run in NuPAGE MES SDS Running Buffer (Life Technologies, Cat# NP0002). Protein was transferred to a nitrocellulose membrane using an iBlot kit (Life Technologies, Cat# IB301001). Membrane was blocked in Odyssey Blocking Buffer (LI-COR, Cat#927-40000) for 1 hour at room temperature with agitation. Membrane was washed twice in PBS with 0.05% Tween20 (PBS-T) and incubated in 2 μg/mL anti-IGF-1 antibody (Millipore, Cat#05-172) overnight at 4° C. Membrane was washed three times in PBS-T and incubated with IRDye 800CW goat anti-mouse antibody (LI-COR, Cat#827-08364) diluted 1:2000 for 1 hour at room temperature. […]

[3] = ELISA binding of fusion proteins to chondroitin sulfate coated plates; settings: 6x-Histidine-tagged proteins, FIG. 1B
Experimental: as §1

[4] = tested on: bovine cartilage explants; assay: In vitro joint disease model (IL-1), explanted bovine cartilage: ^35S-sulfate incorporation; format: cell-based; settings: 4 and 12 day treatments, IL-1, FIG. 16

T1 sequence (P02458 182-1241 limits assumed): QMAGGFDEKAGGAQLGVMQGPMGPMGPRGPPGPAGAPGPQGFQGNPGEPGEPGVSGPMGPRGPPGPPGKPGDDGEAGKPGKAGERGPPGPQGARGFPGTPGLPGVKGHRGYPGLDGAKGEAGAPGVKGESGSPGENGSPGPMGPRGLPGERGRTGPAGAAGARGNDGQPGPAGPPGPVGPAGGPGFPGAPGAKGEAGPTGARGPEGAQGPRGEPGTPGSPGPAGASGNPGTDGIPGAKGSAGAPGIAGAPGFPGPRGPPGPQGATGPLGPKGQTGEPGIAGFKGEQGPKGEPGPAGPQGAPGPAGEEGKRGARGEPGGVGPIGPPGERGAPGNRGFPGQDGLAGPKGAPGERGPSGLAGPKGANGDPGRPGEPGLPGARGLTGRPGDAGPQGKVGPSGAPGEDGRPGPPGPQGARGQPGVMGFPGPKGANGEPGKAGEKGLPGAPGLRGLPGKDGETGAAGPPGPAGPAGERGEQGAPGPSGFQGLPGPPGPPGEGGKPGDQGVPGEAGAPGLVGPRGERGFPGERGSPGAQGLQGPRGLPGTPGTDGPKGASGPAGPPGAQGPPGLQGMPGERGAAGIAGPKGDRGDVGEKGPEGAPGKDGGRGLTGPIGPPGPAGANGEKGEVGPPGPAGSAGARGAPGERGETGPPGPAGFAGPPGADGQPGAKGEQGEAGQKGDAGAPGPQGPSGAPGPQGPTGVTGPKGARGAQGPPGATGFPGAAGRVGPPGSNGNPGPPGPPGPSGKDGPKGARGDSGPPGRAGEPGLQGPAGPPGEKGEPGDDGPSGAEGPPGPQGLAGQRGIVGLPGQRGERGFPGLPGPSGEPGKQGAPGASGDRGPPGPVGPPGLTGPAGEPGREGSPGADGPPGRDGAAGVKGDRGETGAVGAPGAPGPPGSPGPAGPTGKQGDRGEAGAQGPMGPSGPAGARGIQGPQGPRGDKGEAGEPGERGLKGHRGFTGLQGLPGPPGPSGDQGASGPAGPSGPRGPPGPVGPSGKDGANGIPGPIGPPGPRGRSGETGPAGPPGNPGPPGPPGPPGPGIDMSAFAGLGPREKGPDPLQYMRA

GF-Fus6: IGF-1(LR3) fused to CNA344 CB domain
binding to collagen type II (collagen type II): binding more strongly

GF-Fus5: IGF-1(LR3) fused to CNA35 CB domain
binding to collagen type II (collagen type II): bound to collagen type II

GF-Fus3: C-terminal fusion IGF-1(LR3)-PRELP heparin binding domain
binding to heparan sulfate [1]: bound
protein degradation band at less than 7.5 kDa ([2]; 45 ng loaded, after incubation in synovial fluid at 37° C.): ≤ 1 ng
protein degradation in synovial fluid ([2]; 96 hours of 37° C. incubation, donors with grade 1 and grade 3 cartilage degeneration): minimal protein degradation
binding to chondroitin sulfate [3]: bound
cartilage matrix synthesis compared to GF-Fus3-His [4]: equivalent
